Holding throughout (test): mass photometry
For test [1], the target named is PopZ P146A (Caulobacter crescentus).
The target is the same in test [2]. This is another data set of the same source.
The target of test [3] is isolated OD-ΔL6 of PopZ (residues 102-171) (Caulobacter crescentus).
Test [4] has as its target polar organizing protein Z (PopZ), wild type (Caulobacter crescentus).
The target in test [5] is ΔH2-PopZ (PopZ lacking residues 102-128) (Caulobacter crescentus).
For test [6], the target named is ΔL6-PopZ (PopZ lacking residues 172-177) (Caulobacter crescentus).
Test [7] has the same target. The source holds these as a separate data set.
The target of test [8] is Δloop-PopZ (PopZ lacking residues 129-134) (Caulobacter crescentus).

“And” between values parts separate entries of the source, which are not always exact repeats. Equal values may be shown once. Read-outs that look alike come from different tables or passages of the source.

Take PopZ P146A (natural protein): the stoichiometry N in test [1] and in test [2] was 3 each time. Take “isolated OD-ΔL6 of PopZ (residues 102-171) (domain or fragment)”: in test [3], the stoichiometry N is 6. As to “polar organizing protein Z (PopZ), wild type (natural protein)”, in test [4], the stoichiometry N was 12 and 18. In the case of “ΔH2-PopZ (PopZ lacking residues 102-128) (natural protein)”, in test [5], the stoichiometry N is 3 and 6. As to “ΔL6-PopZ (PopZ lacking residues 172-177) (domain or fragment)”, the stoichiometry N in test [6] and in test [7] was 6 each time. “Δloop-PopZ (PopZ lacking residues 129-134) (natural protein)” came in with a stoichiometry N in test [8] of 3.

The values above are taken from publication PMC11703246.
